Assay [1] has as its target T1, recombinant E. coli-expressed human IL-4 (human, UniProt P05112 25-153).
T1 construct: made and purified at GSK; also called Interleukin-4; rhIL-4
T1 sequence: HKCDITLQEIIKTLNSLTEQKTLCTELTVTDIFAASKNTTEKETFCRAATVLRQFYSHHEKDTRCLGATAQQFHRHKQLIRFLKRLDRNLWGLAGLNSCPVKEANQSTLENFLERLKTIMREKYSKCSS
The assay can be described thus: ELISA, supernatant.

Assay [2] addresses T2, recombinant E. coli-expressed human IL-13 (human, UniProt P35225 35-146).
T2 construct: made and purified at GSK; also called Interleukin-13; rhIL-13
Nature of the assay: ELISA, supernatant. (In general: An ELISA detects its analyte on a solid surface through an enzyme-linked reagent.)

Assay [3] addresses T3, recombinant human VEGF (human, UniProt P15692-4 27-191).
T3 construct: also called VEGF165; hVEGF165
Nature of the assay: ELISA.

In assay [4] the target is T4, Recombinant Human HGF R (c-MET)/Fc Chimera (human, UniProt P08581 25-932).
T4 construct: bought; also called HGF receptor
Nature of the assay: ELISA.

Assay [5] has as its target T2, recombinant E. coli-expressed human …. The assay can be described thus: SPR. (In general: SPR reads the build-up and loss of mass on a sensor chip optically.)
In assay [6] the target is T5, CD20 on CD20 positive cell line (Wein133) (UniProt P11836 1-297, limits assumed).
T5 construct: whole, on cells
T5 sequence (looked up): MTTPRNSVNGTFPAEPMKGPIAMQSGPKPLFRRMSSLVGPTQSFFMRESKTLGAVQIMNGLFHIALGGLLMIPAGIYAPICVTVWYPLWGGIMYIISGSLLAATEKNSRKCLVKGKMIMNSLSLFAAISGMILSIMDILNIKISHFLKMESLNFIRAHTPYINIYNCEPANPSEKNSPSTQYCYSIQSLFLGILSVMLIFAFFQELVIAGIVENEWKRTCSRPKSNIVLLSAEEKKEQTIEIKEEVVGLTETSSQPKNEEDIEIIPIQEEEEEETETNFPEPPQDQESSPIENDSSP
Nature of the assay: flow cytometry, Wein133 cells. Background: Flow cytometry measures light scatter and fluorescence of single cells or particles in a stream.

The target of assay [7] is T6, VEGF R2 (VEGF receptor) (human, UniProt P35968 20-764).
T6 construct: bought; construct not described
Nature of the assay: ELISA.

The target in assay [8] is T7, recombinant human HER2 (human, UniProt P04626 23-652, limits assumed).
T7 construct: bought
Nature of the assay: ELISA.

T6 sequence (P35968 20-764 limits assumed): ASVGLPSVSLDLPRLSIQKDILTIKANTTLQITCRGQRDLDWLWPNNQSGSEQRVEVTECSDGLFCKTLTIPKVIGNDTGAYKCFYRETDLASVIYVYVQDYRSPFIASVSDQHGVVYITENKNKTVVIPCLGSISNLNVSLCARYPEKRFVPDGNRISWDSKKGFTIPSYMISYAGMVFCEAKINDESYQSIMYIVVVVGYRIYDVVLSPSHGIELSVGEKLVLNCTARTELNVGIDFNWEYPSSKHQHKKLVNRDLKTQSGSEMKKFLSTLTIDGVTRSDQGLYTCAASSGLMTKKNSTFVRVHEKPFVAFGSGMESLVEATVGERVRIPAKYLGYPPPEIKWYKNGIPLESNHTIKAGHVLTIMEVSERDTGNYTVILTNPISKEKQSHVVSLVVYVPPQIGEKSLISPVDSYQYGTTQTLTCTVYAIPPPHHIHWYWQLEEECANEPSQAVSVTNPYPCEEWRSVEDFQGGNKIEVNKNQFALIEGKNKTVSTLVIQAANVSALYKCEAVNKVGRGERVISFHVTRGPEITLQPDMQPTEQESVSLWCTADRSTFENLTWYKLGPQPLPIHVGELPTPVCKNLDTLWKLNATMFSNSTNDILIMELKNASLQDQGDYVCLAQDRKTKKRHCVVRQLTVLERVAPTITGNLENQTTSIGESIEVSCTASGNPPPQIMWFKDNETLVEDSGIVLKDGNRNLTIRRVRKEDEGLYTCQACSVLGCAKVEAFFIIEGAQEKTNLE
T4 sequence (P08581 25-932 limits assumed, change not shown): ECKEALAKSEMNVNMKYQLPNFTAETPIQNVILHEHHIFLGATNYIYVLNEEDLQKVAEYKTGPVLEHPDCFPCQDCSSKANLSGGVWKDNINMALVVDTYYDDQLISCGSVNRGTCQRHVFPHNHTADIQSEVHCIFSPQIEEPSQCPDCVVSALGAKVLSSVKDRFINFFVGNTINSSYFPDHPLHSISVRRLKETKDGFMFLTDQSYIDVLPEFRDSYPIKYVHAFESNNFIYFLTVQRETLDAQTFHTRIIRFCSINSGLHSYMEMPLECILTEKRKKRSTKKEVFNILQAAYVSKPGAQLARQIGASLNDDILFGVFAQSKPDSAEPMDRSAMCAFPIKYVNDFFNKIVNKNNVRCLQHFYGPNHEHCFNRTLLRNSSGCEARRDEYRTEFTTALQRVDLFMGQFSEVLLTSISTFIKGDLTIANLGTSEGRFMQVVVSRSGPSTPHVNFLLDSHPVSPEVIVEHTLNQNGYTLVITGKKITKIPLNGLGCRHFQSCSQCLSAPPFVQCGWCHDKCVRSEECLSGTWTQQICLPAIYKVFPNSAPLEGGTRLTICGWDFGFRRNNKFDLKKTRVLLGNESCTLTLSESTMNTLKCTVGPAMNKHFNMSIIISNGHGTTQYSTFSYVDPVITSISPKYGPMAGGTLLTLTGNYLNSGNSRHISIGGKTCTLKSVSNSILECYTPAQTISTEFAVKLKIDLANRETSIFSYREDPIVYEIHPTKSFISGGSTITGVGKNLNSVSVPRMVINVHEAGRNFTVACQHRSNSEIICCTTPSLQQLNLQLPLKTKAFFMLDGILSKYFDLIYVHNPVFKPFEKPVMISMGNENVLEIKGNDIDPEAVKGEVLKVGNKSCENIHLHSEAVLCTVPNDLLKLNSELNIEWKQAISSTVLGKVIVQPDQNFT

B1: BPC1617 (bispecific antibody, human IgG2, kappa)
heavy: QVTLRESGPALVKPTQTLTLTCTFSGFSLSTSGMGVSWIRQPPGKGLEWLAHIYWDDDKRYNPSLKSRLTISKDTSRNQVVLTMTNMDPVDTATYYCARRETVFYWYFDVWGRGTLVTVSSASTKGPSVFPLAPCSRSTSESTAALGCLVKDYFPEPVTVSWNSGALTSGVHTFPAVLQSSGLYSLSSVVTVPSSNFGTQTYTCNVDHKPSNTKVDKTVERKCCVECPPCPAPPVAGPSVFLFPPKPKDTLMISRTPEVTCVVVDVSHEDPEVQFNWYVDGVEVHNAKTKPREEQFNSTFRVVSVLTVVHQDWLNGKEYKCKVSNKGLPAPIEKTISKTKGQPREPQVYTLPPSREEMTKNQVSLTCLVKGFYPSDIAVEWESNGQPENNYKTTPPMLDSDGSFFLYSKLTVDKSRWQQGNVFSCSVMHEALHNHYTQKSLSLSPGKGSGVQLLESGGGLVQPGGSLRLSCAASGFTFAWYDMGWVRQAPGKGLEWVSSIDWHGEVTYYADSVKGRFTISRDNSKNTLYLQMNSLRAEDTAVYYCATAEDEPGYDYWGQGTLVTVSS
light: DIVLTQSPSSLSASVGDRVTITCKASQSVDYDGDSYMNWYQQKPGKAPKLLIYAASNLESGIPSRFSGSGSGTDFTFTISSLQPEDIATYYCQQSNEDPPTFGQGTKVEIKRTVAAPSVFIFPPSDEQLKSGTASVVCLLNNFYPREAKVQWKVDNALQSGNSQESVTEQDSKDSTYSLSSTLTLSKADYEKHKVYACEVTHQGLSSPVTKSFNRGEC
On to B1, for which the binding result in assay [1] and in assay [2] was “binds” throughout.

B2: BPC1618 (bispecific antibody, human IgG4, kappa)
heavy: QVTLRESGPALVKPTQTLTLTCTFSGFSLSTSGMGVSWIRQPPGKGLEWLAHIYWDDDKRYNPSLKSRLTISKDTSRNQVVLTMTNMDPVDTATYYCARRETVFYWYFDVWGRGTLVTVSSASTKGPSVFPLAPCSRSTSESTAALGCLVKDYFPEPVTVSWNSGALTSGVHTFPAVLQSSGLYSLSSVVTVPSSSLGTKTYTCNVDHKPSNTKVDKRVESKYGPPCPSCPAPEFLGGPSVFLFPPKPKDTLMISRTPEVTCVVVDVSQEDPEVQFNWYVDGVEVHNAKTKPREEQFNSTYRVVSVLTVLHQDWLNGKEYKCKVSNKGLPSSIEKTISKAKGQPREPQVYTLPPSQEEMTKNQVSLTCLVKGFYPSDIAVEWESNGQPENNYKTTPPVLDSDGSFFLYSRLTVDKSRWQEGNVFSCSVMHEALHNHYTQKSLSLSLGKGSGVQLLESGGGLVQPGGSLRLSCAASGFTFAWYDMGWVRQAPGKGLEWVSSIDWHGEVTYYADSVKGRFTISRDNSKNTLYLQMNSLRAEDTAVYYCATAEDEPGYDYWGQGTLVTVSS
light: DIVLTQSPSSLSASVGDRVTITCKASQSVDYDGDSYMNWYQQKPGKAPKLLIYAASNLESGIPSRFSGSGSGTDFTFTISSLQPEDIATYYCQQSNEDPPTFGQGTKVEIKRTVAAPSVFIFPPSDEQLKSGTASVVCLLNNFYPREAKVQWKVDNALQSGNSQESVTEQDSKDSTYSLSSTLTLSKADYEKHKVYACEVTHQGLSSPVTKSFNRGEC
Take B2: the binding result in assay [1] and in assay [2] was “binds” in each case.

B3: BPC1619 (bispecific antibody, human IgG4 S228P, kappa)
heavy: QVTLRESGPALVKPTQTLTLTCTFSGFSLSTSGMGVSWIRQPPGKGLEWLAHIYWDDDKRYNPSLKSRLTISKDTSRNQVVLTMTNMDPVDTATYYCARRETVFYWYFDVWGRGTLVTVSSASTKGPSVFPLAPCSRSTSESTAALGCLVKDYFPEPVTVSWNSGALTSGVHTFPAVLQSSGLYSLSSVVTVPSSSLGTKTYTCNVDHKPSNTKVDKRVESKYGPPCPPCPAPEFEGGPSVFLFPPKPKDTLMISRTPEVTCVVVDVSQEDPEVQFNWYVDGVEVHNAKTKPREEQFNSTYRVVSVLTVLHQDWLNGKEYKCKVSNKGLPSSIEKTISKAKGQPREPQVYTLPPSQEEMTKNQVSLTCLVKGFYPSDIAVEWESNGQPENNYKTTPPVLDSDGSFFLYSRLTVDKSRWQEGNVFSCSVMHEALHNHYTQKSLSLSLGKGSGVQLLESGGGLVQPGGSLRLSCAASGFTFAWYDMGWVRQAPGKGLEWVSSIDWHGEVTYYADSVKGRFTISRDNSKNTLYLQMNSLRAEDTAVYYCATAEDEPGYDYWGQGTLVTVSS
light: DIVLTQSPSSLSASVGDRVTITCKASQSVDYDGDSYMNWYQQKPGKAPKLLIYAASNLESGIPSRFSGSGSGTDFTFTISSLQPEDIATYYCQQSNEDPPTFGQGTKVEIKRTVAAPSVFIFPPSDEQLKSGTASVVCLLNNFYPREAKVQWKVDNALQSGNSQESVTEQDSKDSTYSLSSTLTLSKADYEKHKVYACEVTHQGLSSPVTKSFNRGEC
Turning to B3, the binding result in assay [1] and in assay [2] was “binds” in each case.

B4: BPC1020 (antibody, V domains shown)
VH: EVQLVESGGGLVQPGGSLRLSCAASGYTFTSYWLHWVRQAPGKGLEWVGMIDPSNSDTRFNPNFKDRFTISADTSKNTAYLQMNSLRAEDTAVYYCATYRSYVTPLDYWGQGTLVTVSS
VL: DIQMTQSPSSLSASVGDRVTITCKSSQSLLYTSSQKNYLAWYQQKPGKAPKLLIYWASTRESGVPSRFSGSGSGTDFTLTISSLQPEDFATYYCQQYYAYPWTFGQGTKVEIKR
B4: the binding result is “no binding” in assay [3] and “binds” in assay [4].

B5: BPC1019 (antibody, human IgG1, kappa)
heavy: not shown
chain: not shown
light: DIQMTQSPSSLSASVGDRVTITCKSSQSLLYTSSQKNYLAWYQQKPGKAPKLLIYWASTRESGVPSRFSGSGSGTDFTLTISSLQPEDFATYYCQQYYAYPWTFGQGTKVEIKRTVAAPSVFIFPPSDEQLKSGTASVVCLLNNFYPREAKVQWKVDNALQSGNSQESVTEQDSKDSTYSLSSTLTLSKADYEKHKVYACEVTHQGLSSPVTKSFNRGEC
notes: monovalent antibody; also called anti cMET 5D5v2 knob-into-hole
Take B5: the binding result is “no binding” in assay [3] and “binds” in assay [4].

B6: BPC1404 (bispecific antibody, human IgG1, kappa)
heavy: not shown
light: QIVLSQSPAILSASPGEKVTMTCRASSSVSYIHWFQQKPGSSPKPWIYATSNLASGVPVRFSGSGSGTSYSLTISRVEAEDAATYYCQQWTSNPPTFGGGTKLEIKRTVAAPSVFIFPPSDEQLKSGTASVVCLLNNFYPREAKVQWKVDNALQSGNSQESVTEQDSKDSTYSLSSTLTLSKADYEKHKVYACEVTHQGLSSPVTKSFNRGECGSGVQLLESGGGLVQPGGSLRLSCAASGFTFAWYDMGWVRQAPGKGLEWVSSIDWHGEVTYYADSVKGRFTISRDNSKNTLYLQMNSLRAEDTAVYYCATAEDEPGYDYWGQGTLVTVSS
notes: also called RituxanL-GS-DOM474
For orientation: Kd means the concentration at which binding is half-saturated. One may read the koff as a measure of how fast the partners let go of each other. A word on the kon: it is the rate constant with which the complex forms. As to B6, in assay [5], the Kd came to 1.02 nM, the off-rate (koff) came out at 0.000508 s⁻¹ and the kon amounted to 499000 M⁻¹ s⁻¹. Moreover, in assay [6], the binding result is “binds”.

B7: anti-IGF-1R antibody H0L0 (antibody, human IgG1, kappa, V domains shown)
VH: QVQLVQSGAEVKKPGASVKVSCKASGYTFTDYYMNWVRQAPGQGLEWMGNINPNNGGTNYNQKFKDRVTMTTDTSTSTAYMELRSLRSDDTAVYYCARWILYYGRSKWYFDVWGRGTLVTVSS
VL: DIVMTQSPLSLPVTPGEPASISCRSSQSIVQSNGDTYLEWYLQKPGQSPQLLIYRVSNRFSGVPDRFSGSGSGTDFTLKISRVEAEDVGVYYCFQGSHVPYTFGQGTKLEIKR
notes: also called HOLO
For the molecule B7, the binding result in assay [7], in assay [8] and in assay [3] was “no binding” throughout.

B8: BPC1401 (bispecific antibody, human IgG1, kappa)
heavy: not shown
light: QIVLSQSPAILSASPGEKVTMTCRASSSVSYIHWFQQKPGSSPKPWIYATSNLASGVPVRFSGSGSGTSYSLTISRVEAEDAATYYCQQWTSNPPTFGGGTKLEIKRTVAAPSVFIFPPSDEQLKSGTASVVCLLNNFYPREAKVQWKVDNALQSGNSQESVTEQDSKDSTYSLSSTLTLSKADYEKHKVYACEVTHQGLSSPVTKSFNRGEC
As for B8, in assay [5], the Kd turned out to be 0.313 nM, the koff was found to be 0.000182 s⁻¹ and the kon turned out to be 581000 M⁻¹ s⁻¹. For the same molecule, the binding result in assay [6] is listed as “binds”.

B9: BPC1402 (bispecific antibody, human IgG1, kappa)
heavy: not shown
light: QIVLSQSPAILSASPGEKVTMTCRASSSVSYIHWFQQKPGSSPKPWIYATSNLASGVPVRFSGSGSGTSYSLTISRVEAEDAATYYCQQWTSNPPTFGGGTKLEIKRTVAAPSVFIFPPSDEQLKSGTASVVCLLNNFYPREAKVQWKVDNALQSGNSQESVTEQDSKDSTYSLSSTLTLSKADYEKHKVYACEVTHQGLSSPVTKSFNRGEC
notes: also called RituxanH-GS-DOM474
On to B9, for which, in assay [5], the equilibrium dissociation constant (Kd) is 0.358 nM, the off-rate (koff) is 0.000305 s⁻¹ and the on-rate constant (kon) amounted to 852000 M⁻¹ s⁻¹. Moreover, in assay [6], the binding result is on record as “binds”.

B10: BPC1801 (bispecific antibody, human IgG1, kappa)
heavy: not shown
light: DIVMTQSPLSLPVTPGEPASISCRSSQSIVQSNGDTYLEWYLQKPGQSPQLLIYRVSNRFSGVPDRFSGSGSGTDFTLKISRVEAEDVGVYYCFQGSHVPYTFGQGTKLEIKRTVAAPSVFIFPPSDEQLKSGTASVVCLLNNFYPREAKVQWKVDNALQSGNSQESVTEQDSKDSTYSLSSTLTLSKADYEKHKVYACEVTHQGLSSPVTKSFNRGEC
notes: also called antiIGF1R Heavy Chain-GS-CT01 adnectin
For B10, in assay [7], the binding result is on record as “binds”.

B11: BPC1802 (bispecific antibody, human IgG1, kappa)
heavy: not shown
light: DIVMTQSPLSLPVTPGEPASISCRSSQSIVQSNGDTYLEWYLQKPGQSPQLLIYRVSNRFSGVPDRFSGSGSGTDFTLKISRVEAEDVGVYYCFQGSHVPYTFGQGTKLEIKRTVAAPSVFIFPPSDEQLKSGTASVVCLLNNFYPREAKVQWKVDNALQSGNSQESVTEQDSKDSTYSLSSTLTLSKADYEKHKVYACEVTHQGLSSPVTKSFNRGEC
Turning to B11, the binding result in assay [7] is “binds”.

The values above are taken from patent US20110008345A1 (GlaxoSmithKline, published 2011).
